Patent US20030103948A1 (NEORX, published 2003)

Molecular target: T1, CD20 (human, UniProt P11836 1-297)
T1 construct: whole, on cells; also called CD20-positive Ramos cell line; Ramos cells
T1 sequence (looked up): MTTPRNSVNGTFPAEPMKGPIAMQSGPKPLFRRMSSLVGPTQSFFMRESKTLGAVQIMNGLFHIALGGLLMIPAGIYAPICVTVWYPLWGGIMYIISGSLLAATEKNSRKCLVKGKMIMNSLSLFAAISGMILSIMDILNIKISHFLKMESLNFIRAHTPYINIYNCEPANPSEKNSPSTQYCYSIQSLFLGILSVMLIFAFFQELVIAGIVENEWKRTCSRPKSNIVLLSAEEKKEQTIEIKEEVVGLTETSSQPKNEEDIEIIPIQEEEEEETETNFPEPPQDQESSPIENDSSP
Assay: saturation binding of radiolabeled antibody to Ramos cells (10^7 cells), nonlinear regression
Description: Avidity was determined using saturation binding experiments that measure specific binding of radiolabeled mAb or fusion protein (0.025-50 ng/ml) at equilibrium in the presence of excess antigen (10⁷ cells). Nonspecific binding was determined in the presence of excess cold mAb or fusion protein (50 μg/ml). […] The equilibrium dissociation constant (Kd) was calculated from nonlinear regression analysis of nM bound vs. nM radioligand using immunoreactivity-adjusted antibody concentrations.
Kd and Kₐ were calculated using nonlinear regression analysis of nM bound vs. nM radioligand.

B1: B9E9 mAb (antibody, V domains shown)
VH: QVQLVQSGAELVKPGASVKMSCKASGYTFTSYNMHWVKQTPGQGLEWIGAIYPGNGDTSYNQKFKGKATLTADKSSSTAYMQLSSLTSEDSAVYYCARAQLRPNYWYFDVWGAGTTVTVSS
VL: DIVLSQSPAILSASPGEKVTMTCRASSSVSYMHWYQQKPGSSPKPWIYATSNLASGVPARFSGSGSGTSYSLTISRVEAEDAATYYCQQWISNPPTFGAGTKLELK
modifications: Used unlabelled, fluorescein-labelled (FACS tracer) and radiolabelled (avidity assay).
notes: also called divalent B9E9 antibody; murine anti-CD20 antibody B9E9
**Q.** Which results are given for B1?
**A.** Ka: 1.02e+08 M⁻¹; Kd: 9.75 nM
